Measured values published in patent publication US20140004106A1.

Tests used:
[1] = biological target: 28mer peptide of the CXCR5 antigen; assay: Antigen-ELISA; Acetate 10 mM pH 5.50, T0
[2] = biological target: 28mer peptide of the CXCR5 antigen; assay: Antigen-ELISA; PBS 155 mM, clear glass type I, 24 h +40°C
[3] = biological target: 28mer peptide of the CXCR5 antigen; assay: Antigen-ELISA; standard, repeated values in the 3 weeks -20°C
[4] = biological target: 28mer peptide of the CXCR5 antigen; assay: Antigen-ELISA; acetate 10 mM prototype B, repeated values in the 3 weeks -20°C
[5] = biological target: 28mer peptide of the CXCR5 antigen; assay: Antigen-ELISA; PBS 155 mM, amber glass type II, 24 h +40°C
[6] = biological target: 28mer peptide of the CXCR5 antigen; assay: Antigen-ELISA; TRIS 10 mM pH 7.5, after 1 week at +40°C
[7] = biological target: 28mer peptide of the CXCR5 antigen; assay: Antigen-ELISA; PBS 155 mM pH 6.50, after mechanical stress 350 rpm 2.5 h
[8] = biological target: 28mer peptide of the CXCR5 antigen; assay: Antigen-ELISA; citrate 10 mM prototype D, T0
[9] = biological target: 28mer peptide of the CXCR5 antigen; assay: Antigen-ELISA; standard run with LA_09_27C, T0
[10] = biological target: 28mer peptide of the CXCR5 antigen; assay: Potency (Antigen ELISA); stored +25°C, 3 months
[11] = biological target: 28mer peptide of the CXCR5 antigen; assay: ELISA potency (binding); 100 mg/mL, Lysine (30) + NaCl (2), 7 days at 40°C
[12] = biological target: 28mer peptide of the CXCR5 antigen; assay: Antigen-ELISA; standard run with LA_09_004_7
[13] = biological target: 28mer peptide of the CXCR5 antigen; assay: Ag-ELISA; DS in PBS, 5°C, 3 months
[14] = biological target: 28mer peptide of the CXCR5 antigen; assay: Antigen-ELISA; Acetate 10 mM pH 5.00, T0
[15] = biological target: 28mer peptide of the CXCR5 antigen; assay: Antigen-ELISA; Saline 150 mM pH 6.00, T0
[16] = biological target: 28mer peptide of the CXCR5 antigen; assay: Antigen-ELISA; PBS 155 mM, 1 h purged with N2, 24 h
[17] = biological target: 28mer peptide of the CXCR5 antigen; assay: Antigen-ELISA; Glycine 10 mM pH 7, after 1 week at +40°C
[18] = biological target: 28mer peptide of the CXCR5 antigen; assay: Antigen-ELISA; PB 10 mM pH 6.50, after mechanical stress 350 rpm 2.5 h
[19] = biological target: 28mer peptide of the CXCR5 antigen; assay: Antigen-ELISA; standard run with LA_09_004_2
[20] = biological target: 28mer peptide of the CXCR5 antigen; assay: Antigen-ELISA; PBS 155 mM pH 7.50, T0
[21] = biological target: 28mer peptide of the CXCR5 antigen; assay: Antigen-ELISA; PB 5 mM pH 6.50, after mechanical stress 350 rpm 2.5 h
[22] = biological target: 28mer peptide of the CXCR5 antigen; assay: Antigen-ELISA; acetate 10 mM prototype A, repeated values in the 3 weeks -20°C
[23] = biological target: 28mer peptide of the CXCR5 antigen; assay: Potency (Antigen ELISA); stored -20°C, 3 months
[24] = biological target: 28mer peptide of the CXCR5 antigen; assay: ELISA potency (binding); 100 mg/mL, Arginine (30), 7 days at 40°C
[25] = biological target: 28mer peptide of the CXCR5 antigen; assay: Antigen-ELISA; standard run with LA_09_28D, T0
[26] = biological target: 28mer peptide of the CXCR5 antigen; assay: Antigen-ELISA; acetate 10 mM prototype D, T0
[27] = biological target: 28mer peptide of the CXCR5 antigen; assay: ELISA potency (binding); 100 mg/mL, Trehalose (60) + Mannitol (15), 7 days at 40°C
[28] = biological target: 28mer peptide of the CXCR5 antigen; assay: Antigen-ELISA; Succinate 10 mM pH 6.00, T0
[29] = biological target: 28mer peptide of the CXCR5 antigen; assay: Antigen-ELISA; standard run with LA_09_28C, T0
[30] = biological target: 28mer peptide of the CXCR5 antigen; assay: Antigen-ELISA; PB 10 mM pH 7.00, after mechanical stress 350 rpm 2.5 h
[31] = biological target: 28mer peptide of the CXCR5 antigen; assay: ELISA potency (binding); 100 mg/mL, Arginine (30), T zero
[32] = biological target: 28mer peptide of the CXCR5 antigen; assay: Potency (Antigen ELISA); stored -20°C, 1 month
[33] = biological target: 28mer peptide of the CXCR5 antigen; assay: Antigen-ELISA; PB 10 mM pH 7.00, after 1 week at +40°C
[34] = biological target: 28mer peptide of the CXCR5 antigen; assay: Antigen-ELISA; Citrate 10 mM pH 6.00, after mechanical stress 350 rpm 2.5 h
[35] = biological target: 28mer peptide of the CXCR5 antigen; assay: ELISA potency (binding); 100 mg/mL, Trehalose (60) + NaCl (2), 7 days at 40°C
[36] = biological target: 28mer peptide of the CXCR5 antigen; assay: Antigen-ELISA; Histidine 10 mM pH 6.5, T0
[37] = biological target: 28mer peptide of the CXCR5 antigen; assay: Antigen-ELISA; TRIS 10 mM pH 8.5, T0
[38] = biological target: 28mer peptide of the CXCR5 antigen; assay: Potency (Antigen ELISA); stored +5°C, 18 months
[39] = biological target: 28mer peptide of the CXCR5 antigen; assay: Antigen-ELISA; PBS 155 mM, polypropylene, 24 h +40°C
[40] = biological target: 28mer peptide of the CXCR5 antigen; assay: Antigen-ELISA; PB 10 mM pH 7.50, after mechanical stress 350 rpm 2.5 h
[41] = biological target: 28mer peptide of the CXCR5 antigen; assay: Antigen-ELISA; standard run with LA_09_29D, T0
[42] = biological target: 28mer peptide of the CXCR5 antigen; assay: Antigen-ELISA; standard run with LA_09_27A, T0
[43] = biological target: 28mer peptide of the CXCR5 antigen; assay: Antigen-ELISA; standard run with LA_09_28A, T0

B1: Lead CXCR5 Antibody (humanized IgG4 anti-CXCR5 antibody) (antibody, V domains shown)
VH: QVQLKESGPGLVAPSESLSITCTVSGFSLIDYGVNWIRQPPGKGLEWLGVIWGDGTTYYNPSLKSRLSISKDNSKSQVFLKVTSLTTDDTAMYYCARIVYWGQGTLVTVSA
VL: DIVMTQAAPSVAVTPGASVSISCRSSKSLLHSSGKTYLYWFLQRPGQSPQLLIYRLSSLASGVPDRFSGSGSGTAFTLRISRVEAEDVGVYYCMQHLEYPYTFGGGTKLEIKR
- EC50 % [1]: 180%
- EC50 % [2]: 131%
- EC50 % [3]: 100%
- EC50 % [4]: 112%
- EC50 % [5]: 90.1%
- EC50 % [6]: 184%
- EC50 % [7]: 79.3%
- EC50 % [8]: 94%
- EC50 % [9]: 100%
- EC50 value (in comparison to reference) [10]: 96%
- rel. potency [%] [11]: 264%
- EC50 % [12]: 100%
- EC50 % [13]: 112%
- EC50 % [14]: 147%
- EC50 % [15]: 96.2%
- EC50 % [16]: 89.3%
- EC50 % [17]: 65%
- EC50 % [18]: 89.4%
- EC50 % [19]: 100%
- EC50 % [20]: 81%
- EC50 % [21]: 150%
- EC50 % [22]: 112%
- EC50 value (in comparison to reference) [23]: 84%
- rel. potency [%] [24]: 143%
- EC50 % [25]: 100%
- EC50 % [26]: 91%
- rel. potency [%] [27]: 266%
- EC50 % [28]: 112%
- EC50 % [29]: 100%
- EC50 % [30]: 61.4%
- rel. potency [%] [31]: 160%
- EC50 value (in comparison to reference) [32]: 107%
- EC50 % [33]: 109%
- EC50 % [34]: 136%
- rel. potency [%] [35]: 191%
- EC50 % [36]: 110%
- EC50 % [37]: 118%
- EC50 value (in comparison to reference) [38]: 119%
- EC50 % [39]: 107%
- EC50 % [40]: 60.9%
- EC50 % [41]: 100%
- EC50 % [42]: 100%
- EC50 % [43]: 100%
